Experimental data reported in patent publication US20180134781A1 (Regeneron, published 2018).

How the values were obtained:
[1] = target: T1, human ANGPTL8 expressed with C-terminal mouse IgG2a Fc tag (human); assay: BLI (Octet HTX), hANGPTL8-mFc captured on AMC sensor
T1 construct: also called hANGPTL8-mFc; hANGPTL8.mFc
T1 chain: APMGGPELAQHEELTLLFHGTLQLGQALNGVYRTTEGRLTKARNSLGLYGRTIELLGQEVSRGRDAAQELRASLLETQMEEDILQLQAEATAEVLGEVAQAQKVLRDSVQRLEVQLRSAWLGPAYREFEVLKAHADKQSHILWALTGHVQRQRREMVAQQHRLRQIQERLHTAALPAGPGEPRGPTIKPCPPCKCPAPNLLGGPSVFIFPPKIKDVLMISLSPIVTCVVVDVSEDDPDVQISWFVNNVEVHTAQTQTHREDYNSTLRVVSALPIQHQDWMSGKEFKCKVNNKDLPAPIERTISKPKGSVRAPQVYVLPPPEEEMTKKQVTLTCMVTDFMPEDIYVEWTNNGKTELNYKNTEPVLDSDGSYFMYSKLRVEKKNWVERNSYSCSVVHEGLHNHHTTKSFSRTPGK
Protocol: (§1) Binding of ANGPTL8 antibodies to human and monkey ANGPTL8 proteins was investigated using Bio-layer Interferometry with an Octet HTX biosensor platform (ForteBio, A Division of Pall Life Sciences). All experiments were performed at 25° C. in 10 mM HEPES pH 7.4, 150 mM NaCl, 0.05% v/v Surfactant Tween-20, and 1 mg/ml BSA with the reaction multiwell plate agitated at 1000 rpm. Approximately 1.6 nm of human ANGPTL8 produced with a C-terminal mouse IgG2a Fc tag (hANGPTL8-mFc; SEQ ID NO: 340) or cynomolgus monkey ANGPTL8 produced with a C-terminal mouse IgG2a Fc tag (MfANGPTL8-mFc; SEQ ID NO: 341) was captured onto anti-mFc (AMC) Octet biosensors by submerging the sensors into wells containing 10 μg/mL of each protein for 4 minutes. Under the same conditions a negative control protein with the same mFc tag (hLDLR-mFc) was also coupled to the AMC sensor. All four sensors, […] and one blank, were then submerged into wells containing 100 nM of different ANGPTL8 monoclonal antibodies or an isotype control for 4 minutes.

[2] = target: T2, hLDLR-mFc (negative control protein with the same mFc tag) (human, UniProt P01130 22-788); assay: BLI (Octet HTX), hLDLR-mFc captured on AMC sensor
T2 construct: also called Irrelevant control; not shown: mFc tag ('the same mFc tag', mouse IgG2a Fc)
Protocol: as §1

[3] = target: T3, monkey ANGPTL8 expressed with C-terminal mouse IgG2a Fc tag (cynomolgus monkey); assay: BLI (Octet HTX), MfANGPTL8-mFc captured on AMC sensor
T3 construct: also called MfANGPTL8-mFc; mfANGPTL8-mFc
T3 chain: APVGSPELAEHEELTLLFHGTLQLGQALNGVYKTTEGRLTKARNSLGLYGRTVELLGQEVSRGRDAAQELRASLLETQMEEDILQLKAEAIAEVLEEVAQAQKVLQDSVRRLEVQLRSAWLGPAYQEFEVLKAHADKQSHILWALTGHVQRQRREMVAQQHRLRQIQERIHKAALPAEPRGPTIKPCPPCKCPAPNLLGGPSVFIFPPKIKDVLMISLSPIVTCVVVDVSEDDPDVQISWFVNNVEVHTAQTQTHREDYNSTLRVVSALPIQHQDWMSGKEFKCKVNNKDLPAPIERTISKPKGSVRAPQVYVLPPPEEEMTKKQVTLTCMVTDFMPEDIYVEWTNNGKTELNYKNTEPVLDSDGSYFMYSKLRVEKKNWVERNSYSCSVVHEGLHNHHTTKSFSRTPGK
Protocol: as §1

human ANGPTL4 = target: T4, human ANGPTL4 (human, UniProt Q9BY76 26-406, limits assumed); assay: SPR
T4 construct: also called hANGPTL4
T4 sequence: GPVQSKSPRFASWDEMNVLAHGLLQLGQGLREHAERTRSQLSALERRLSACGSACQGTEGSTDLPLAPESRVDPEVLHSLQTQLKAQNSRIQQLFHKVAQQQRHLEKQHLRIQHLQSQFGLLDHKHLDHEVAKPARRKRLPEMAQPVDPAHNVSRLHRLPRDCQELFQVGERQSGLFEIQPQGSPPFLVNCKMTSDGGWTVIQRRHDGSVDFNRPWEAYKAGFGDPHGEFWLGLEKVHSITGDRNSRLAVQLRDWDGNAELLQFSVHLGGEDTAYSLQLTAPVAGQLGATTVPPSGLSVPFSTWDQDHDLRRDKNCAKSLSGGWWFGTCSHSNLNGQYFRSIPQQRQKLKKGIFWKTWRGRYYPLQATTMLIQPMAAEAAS

mouse ANGPTL8 = target: T5, mouse ANGPTL8 (mouse, UniProt Q8R1L8 16-198, limits assumed); assay: SPR
T5 sequence (looked up): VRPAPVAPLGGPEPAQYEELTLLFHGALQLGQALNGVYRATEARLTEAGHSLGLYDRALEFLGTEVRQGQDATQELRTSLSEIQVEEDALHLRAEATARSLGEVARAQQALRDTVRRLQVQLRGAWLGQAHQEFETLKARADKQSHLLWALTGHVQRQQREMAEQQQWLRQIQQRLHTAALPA

human ANGPTL3 = target: T6, human ANGPTL3 (human, UniProt Q9Y5C1 17-460, limits assumed); assay: SPR
T6 construct: also called hANGPTL3
T6 sequence: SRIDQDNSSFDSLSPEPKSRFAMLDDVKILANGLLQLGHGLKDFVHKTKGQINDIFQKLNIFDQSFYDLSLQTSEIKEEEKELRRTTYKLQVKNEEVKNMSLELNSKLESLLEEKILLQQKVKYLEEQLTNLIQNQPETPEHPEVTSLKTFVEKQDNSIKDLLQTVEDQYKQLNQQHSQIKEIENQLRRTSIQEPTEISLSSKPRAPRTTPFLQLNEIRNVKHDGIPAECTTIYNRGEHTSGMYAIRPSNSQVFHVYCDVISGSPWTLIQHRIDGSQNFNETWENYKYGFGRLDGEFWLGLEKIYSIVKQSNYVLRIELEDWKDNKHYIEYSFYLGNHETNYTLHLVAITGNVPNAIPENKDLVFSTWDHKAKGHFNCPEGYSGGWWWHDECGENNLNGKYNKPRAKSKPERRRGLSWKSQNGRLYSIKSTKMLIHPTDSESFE

mouse ANGPTL3 = target: T7, mouse ANGPTL3 (mouse, UniProt Q9R182 17-455, limits assumed); assay: SPR
T7 sequence (looked up): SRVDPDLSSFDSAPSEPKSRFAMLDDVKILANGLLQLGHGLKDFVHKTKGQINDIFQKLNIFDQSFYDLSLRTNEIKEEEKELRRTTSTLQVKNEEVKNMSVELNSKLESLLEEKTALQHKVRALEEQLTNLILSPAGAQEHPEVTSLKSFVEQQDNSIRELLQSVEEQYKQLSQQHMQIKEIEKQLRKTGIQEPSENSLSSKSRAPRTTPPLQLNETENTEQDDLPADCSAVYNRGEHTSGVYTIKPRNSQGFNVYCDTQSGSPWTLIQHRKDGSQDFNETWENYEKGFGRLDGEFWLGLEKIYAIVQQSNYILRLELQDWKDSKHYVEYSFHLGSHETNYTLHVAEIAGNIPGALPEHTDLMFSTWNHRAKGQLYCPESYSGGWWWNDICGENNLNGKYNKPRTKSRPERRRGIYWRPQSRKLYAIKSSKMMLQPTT

mouse ANGPTL4 = target: T8, mouse ANGPTL4 (mouse, UniProt Q9Z1P8 24-410, limits assumed); assay: SPR
T8 sequence (looked up): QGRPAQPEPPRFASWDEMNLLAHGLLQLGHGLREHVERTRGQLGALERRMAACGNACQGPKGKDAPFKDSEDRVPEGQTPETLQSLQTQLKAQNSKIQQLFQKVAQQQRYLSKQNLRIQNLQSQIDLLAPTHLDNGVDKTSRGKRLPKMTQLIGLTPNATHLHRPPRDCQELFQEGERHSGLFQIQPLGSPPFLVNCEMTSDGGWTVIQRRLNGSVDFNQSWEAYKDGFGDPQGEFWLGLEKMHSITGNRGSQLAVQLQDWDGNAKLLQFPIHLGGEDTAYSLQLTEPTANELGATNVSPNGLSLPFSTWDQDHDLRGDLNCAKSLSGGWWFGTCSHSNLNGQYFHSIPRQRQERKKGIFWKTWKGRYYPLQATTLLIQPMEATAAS

T2 sequence (P01130 22-788): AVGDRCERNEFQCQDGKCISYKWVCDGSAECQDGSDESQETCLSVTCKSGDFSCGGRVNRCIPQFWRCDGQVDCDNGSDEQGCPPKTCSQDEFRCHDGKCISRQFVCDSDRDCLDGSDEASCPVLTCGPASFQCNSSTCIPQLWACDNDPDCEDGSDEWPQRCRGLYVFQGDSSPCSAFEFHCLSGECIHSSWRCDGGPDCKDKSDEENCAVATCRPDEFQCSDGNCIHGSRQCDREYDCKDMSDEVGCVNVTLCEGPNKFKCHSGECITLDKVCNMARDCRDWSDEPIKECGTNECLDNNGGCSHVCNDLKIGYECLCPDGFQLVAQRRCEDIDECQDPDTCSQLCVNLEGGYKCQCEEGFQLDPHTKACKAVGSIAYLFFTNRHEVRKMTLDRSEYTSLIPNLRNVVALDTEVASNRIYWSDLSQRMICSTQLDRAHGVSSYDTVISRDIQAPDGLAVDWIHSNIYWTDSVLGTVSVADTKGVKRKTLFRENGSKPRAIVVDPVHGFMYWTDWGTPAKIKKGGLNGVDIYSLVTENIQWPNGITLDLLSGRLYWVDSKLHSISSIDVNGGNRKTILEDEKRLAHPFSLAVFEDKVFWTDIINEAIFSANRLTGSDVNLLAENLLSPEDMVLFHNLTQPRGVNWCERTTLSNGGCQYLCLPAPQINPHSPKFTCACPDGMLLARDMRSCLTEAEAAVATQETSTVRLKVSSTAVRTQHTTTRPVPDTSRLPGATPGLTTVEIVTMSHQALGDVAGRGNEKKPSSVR

B1: H4H15316P (antibody, human IgG4, V domains shown)
VH: EVQLVESGGGLVQPGRSLRLSCAASGFIFDDYDMHWVRQAPGKGLEWVSGISWNSGSKGYADSVKGRFTISRDNAKNSLYLQMNSLRAEDTALYYCTKGPWDYFDYWGQGTLVTVSS
VL: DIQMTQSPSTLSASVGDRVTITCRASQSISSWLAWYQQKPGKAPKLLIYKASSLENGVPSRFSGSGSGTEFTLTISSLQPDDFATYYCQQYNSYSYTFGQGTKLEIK
notes: human IgG4 Fc (H4H prefix)
B1: no binding (tested: background 0.03 nm at 100 nM mAb) [1]; no binding (tested: 0.03 nm at 100 nM mAb) [2]; no binding (tested: background 0.03 nm at 100 nM mAb) [3].

B2: H4H15314P2 (antibody, human IgG4, V domains shown)
VH: QVQLVQSGAEVKKPGASVKVSCKASGYTFTSYDINWVRQATGQGLEWMGWMNPNGDNTGYAQKFQGRVTMTGDTSISTAYMELSSLRSEDTAVYYCAREGIWGFDPWGQGTLVTVSS
VL: DIQMTQSPSSLSASVGDRVTITCRASQDIRNDLGWYQQKPGKAPKRLIYAASSLQSGVPSRFSGSGSGTEFTLTISSLQPEDFATFYCLQHNTFPRTFGQGTKVEIK
notes: human IgG4 Fc (H4H prefix)
B2: no binding (tested: 0.03 nm at 100 nM mAb) [2]; no binding (tested: background 0.03 nm at 100 nM mAb) [3].

B3: H4H15341P (antibody, human IgG4, V domains shown)
VH: EVQLVESGGGLVQPGGSLRLSCAASGFTFNNHEMNWVRQAPGKGLEWVSYISSSGNTVTYADFLKGRFTISRDNAKNSLFLQMNSLRDEDTAVYYCARDHLSGTSPLSYWGQGTLVTVSS
VL: DIQMTQSPSSLSASVGDRVTITCQASQDINNYLNWFQQKPGKAPKLLIFDASNLETGVPSRFSGSGSGTDFTFTISSLQPEDIATYFCQQYENLPYTFGQGTKLEIK
notes: also called anti-hANGPTL8
B3: no binding (tested: 0.03 nm at 100 nM mAb) [2]; no binding (human ANGPTL4); no binding (mouse ANGPTL8). B3: no binding (human ANGPTL3); no binding (mouse ANGPTL3); no binding (mouse ANGPTL4).
